# Assay results reported in PMC10144703, “Molecular Mechanism of Sirtuin 1 Inhibition by Human Immunodeficiency Virus 1 Tat Protein” (Life, 2023).
# Where no end group is shown, it is not given here.
# B1: human mini-Sirt1 (aa 183-505-(GGGS)2-641-665) (enzyme)
# chain: GPYTFVQQHLMIGTDPRTILKDLLPETIPPPELDDMTLWQIVINILSEPPKRKKRKDINTIEDAVKLLQECKKIIVLTGAGVSVSCGIPDFRSRDGIYARLAVDFPDLPDPQAMFDIEYFRKDPRPFFKFAKEIYPGQFQPSLCHKFIALSDKEGKLLRNYTQNIDTLEQVAGIQRIIQCHGSFATASCLICKYKVDCEAVRGDIFNQVVPRCPRCPADEPLAIMKPEIVFFGENLPEQFHRAMKYDKDEVDLLIVIGSSLKVRPVALIPSSIPHEVPQILINREPLPHLHFDVELLGDCDVIINELCHRLGGEYAKLCCNPVGGGSGGGSQYLFLPPNRYIFHGAEVYSDSEDDV
# notes: artificial linker, printed as (GGGS)2; human Sirt1, residues 641-665 (ESA region); Modified pET-19b with TEV cleavage site; source: E. coli CodonPlus(DE3), purified (nickel NTA, protease digestion, second nickel NTA, SEC)
# B2: Tat-Cys^−-(1–86), full-length HIV1 Tat (Zaire 2 isolate) with its 7 Cys residues replaced by Ser/Ala (natural protein)
# chain: MDPVDPNIEPWNHPGSQPKTASNRAHAKKSAYHSQVAFITKGLGISYGRKKRRQRRRPSQGGQTHQDPIPKQPSSQPRGDPTGPKE
# Tests used:
# human Sirt3-(118-399) = biological target: T1, human Sirt3-(118-399) (human, UniProt Q9NTG7 118-399); experiment: crystal structure; 10 mg/mL Sirt3-(118-399) incubated with 2 mM peptide for 60 min at 20 °C; sitting-drop vapor diffusion at 20 °C (MES pH 6.0/PEG 200/PEG 3000 for ac-Tat-46-54; CHES pH 9.0/PEG 8000 for Tat-37-59); settings: both partners purified
# T1 construct: human Sirt3, residues 118-399; The construct used for crystallization; also called hSirt3-(118-399); source: E. coli CodonPlus(DE3), pVFT3S, purified (nickel NTA, protease digestion, second nickel NTA, SEC)
# T1 sequence (looked up): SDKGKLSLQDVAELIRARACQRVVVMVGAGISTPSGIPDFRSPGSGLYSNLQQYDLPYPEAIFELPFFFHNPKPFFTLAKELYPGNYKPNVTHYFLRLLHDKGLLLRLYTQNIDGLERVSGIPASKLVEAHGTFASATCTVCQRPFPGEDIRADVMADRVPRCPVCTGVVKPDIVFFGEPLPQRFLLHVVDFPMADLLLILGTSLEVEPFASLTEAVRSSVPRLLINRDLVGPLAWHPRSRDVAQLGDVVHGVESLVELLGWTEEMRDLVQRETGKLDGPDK
# [1] = biological target: B2; experiment: NMR titration; unlabeled mini-Sirt1 (stock 260 µM) added stepwise to 100 µM 15N-labeled Tat-Cys^−; 150 mM sodium chloride, 10 mM potassium phosphate pH 6.4; 2D-(1H,15N)-HSQC at 298 K; settings: both partners purified
# human mini-Sirt1 (aa …) = biological target: B1; experiment: cell-based or functional assay
# [2] = biological target: Sirt3 (as used in the activity assays) (human); experiment: cell-based or functional assay
# Sirt2-(43-356) = biological target: T2, Sirt2-(43-356) (human, UniProt Q8IXJ6 43-356); experiment: cell-based or functional assay
# T2 sequence (looked up): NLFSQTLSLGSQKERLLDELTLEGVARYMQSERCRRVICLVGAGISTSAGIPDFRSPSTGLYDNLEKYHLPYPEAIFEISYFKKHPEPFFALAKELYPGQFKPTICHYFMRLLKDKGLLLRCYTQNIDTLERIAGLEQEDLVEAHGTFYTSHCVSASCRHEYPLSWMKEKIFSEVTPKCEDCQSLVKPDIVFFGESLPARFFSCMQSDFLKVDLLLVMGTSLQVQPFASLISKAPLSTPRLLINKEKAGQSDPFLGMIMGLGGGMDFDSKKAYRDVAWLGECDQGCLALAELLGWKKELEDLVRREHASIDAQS
# human full-length Sirt1 = biological target: T3, human full-length Sirt1 (human, UniProt Q96EB6 1-747); experiment: cell-based or functional assay
# T3 sequence (looked up): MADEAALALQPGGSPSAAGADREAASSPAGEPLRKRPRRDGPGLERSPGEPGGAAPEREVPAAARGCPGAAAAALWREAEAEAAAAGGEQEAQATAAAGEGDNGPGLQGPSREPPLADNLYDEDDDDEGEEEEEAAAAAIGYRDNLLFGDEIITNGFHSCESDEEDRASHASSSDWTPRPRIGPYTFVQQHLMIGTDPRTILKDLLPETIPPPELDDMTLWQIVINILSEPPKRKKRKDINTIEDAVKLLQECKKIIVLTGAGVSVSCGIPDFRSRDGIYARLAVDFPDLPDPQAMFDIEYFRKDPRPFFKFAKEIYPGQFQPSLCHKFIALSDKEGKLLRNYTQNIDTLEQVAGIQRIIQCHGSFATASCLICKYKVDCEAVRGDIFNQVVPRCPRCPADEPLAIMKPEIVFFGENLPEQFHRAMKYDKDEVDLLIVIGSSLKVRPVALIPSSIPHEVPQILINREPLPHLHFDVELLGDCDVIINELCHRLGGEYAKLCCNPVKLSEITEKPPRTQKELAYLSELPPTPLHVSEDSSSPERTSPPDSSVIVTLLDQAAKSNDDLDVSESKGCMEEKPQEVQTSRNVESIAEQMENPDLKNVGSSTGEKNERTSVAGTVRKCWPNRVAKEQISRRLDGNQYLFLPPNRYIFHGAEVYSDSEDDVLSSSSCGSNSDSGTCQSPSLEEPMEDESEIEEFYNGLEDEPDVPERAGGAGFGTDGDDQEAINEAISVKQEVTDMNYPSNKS
binder,measurement,setting,value
"SYGRK(Ac)KRRQ (HIV1 Tat, residues 46-54, acetylated at Lys50; also called Tat substrate peptide) [ac-Tat-46–54]",binding result,human Sirt3-(118-399),binds
B1,binding result,[1],binds
B2,"inhibition of mini-Sirt1 deacetylation of p53 substrate, coupled-enzyme assay at substrate Km; IC50",human mini-Sirt1 (aa …),30 to 40 µM
same,inhibition of mini-Sirt1 in the FdL assay at substrate Km; IC50,human mini-Sirt1 (aa …),2.3 µM
same,inhibition of Sirt3 in the FdL assay at substrate Km; IC50,[2],15.9 µM
same,inhibition of Sirt2 in the FdL assay at substrate Km; IC50,Sirt2-(43-356),11 µM
same,"inhibition of fl-Sirt1 deacetylation of FdL substrate, FdL assay at substrate Km; IC50",human full-length Sirt1,3.6 µM
same,"inhibition of fl-Sirt1 deacetylation of a p53-derived peptide, coupled enzymatic assay, 100 µM substrate; IC50",human full-length Sirt1,~20 µM
